± gives the standard deviation of the averaged measurements.
Experiment: total protein half-life in vivo (active degradation + dilution); higher = more stable protein
[1] = wild type E. coli NCM3722, growth: C-lim chemostat, doubling time 12 h
[2] = E. coli NCM3722 delta-clpP, growth: N-lim chemostat, doubling time 6 h
[3] = E. coli NCM3722 delta-hslV, growth: N-lim chemostat, doubling time 6 h
[4] = E. coli NCM3722 delta-lon, growth: N-lim chemostat, doubling time 6 h
[5] = E. coli NCM3722 delta-smpB, growth: N-lim chemostat, doubling time 6 h
[6] = wild type E. coli NCM3722, growth: C-lim chemostat, doubling time 3 h
[7] = wild type E. coli NCM3722, growth: N-lim chemostat, doubling time 6 h
[8] = wild type E. coli NCM3722, growth: N-lim chemostat, doubling time 12 h
[9] = wild type E. coli NCM3722, growth: P-lim chemostat, doubling time 6 h
[10] = E. coli NCM3722 delta-clpP delta-lon delta-hslV, growth: N-lim chemostat, doubling time 6 h
[11] = wild type E. coli NCM3722, growth: C-lim chemostat, doubling time 6 h
[12] = wild type E. coli NCM3722, growth: P-lim chemostat, doubling time 12 h

Row | Sequence | total protein half-life in vivo [1] [h] | total protein half-life in vivo [2] [h] | total protein half-life in vivo [3] [h] | total protein half-life in vivo [4] [h] | total protein half-life in vivo [5] [h] | total protein half-life in vivo [6] [h] | total protein half-life in vivo [7] [h] | total protein half-life in vivo [8] [h] | total protein half-life in vivo [9] [h] | total protein half-life in vivo [10] [h] | total protein half-life in vivo [11] [h] | total protein half-life in vivo [12] [h]
1 | MYSSSRKRCPKTKWALKLLTAAFLAASPAAKSAVNNAYDALIIEARKGNTQPALSWFALKSALSNNQIADWLQIALWAGQDKQVITVYNRYRHQQLPARGYAAVAVAYRNLQQWQNSLTLWQKALSLEPQNKDYQRGQILTLADAGHYDTALVKLKQLNSGAPDKANLLAEAYIYKLAGRHQDELRAMTESLPENASTQQYPTEYVQALRNNQLAAAIDDANLTPDIRADIHAELVRLSFMPTRSESERYAIADRALAQYAALEILWHDNPDRTAQYQRIQVDHLGALLTRDRYKDVISHYQRLKKTGQIIPPWGQYWVASAYLKDHQPKKAQSIMTELFYHKETIAPDLSDEELADLFYSHLESENYPGALTVTQHTINTSPPFLRLMGTPTSIPNDTWLQGHSFLSTVAKYSNDLPQAEMTARELAYNAPGNQGLRIDYASVLQARGWPRAAENELKKAEVIEPRNINLEVEQAWTALTLQEWQQAAVLTHDVVEREPQDPGVVRLKRAVDVHNLAELRIAGSTGIDAEGPDSGKHDVDLTTIVYSPPLKDNWRGFAGFGYADGQFSEGKGIVRDWLAGVEWRSRNIWLEAEYAERVFNHEHKPGARLSGWYDFNDNWRIGSQLERLSHRVPLRAMKNGVTGNSAQAYVRWYQNERRKYGVSWAFTDFSDSNQRHEVSLEGQERIWSSPYLIVDFLPSLYYEQNTEHDTPYYNPIKTFDIVPAFEASHLLWRSYENSWEQIFSAGVGASWQKHYGTDVVTQLGYGQRISWNDVIDAGATLRWEKRPYDGDREHNLYVEFDMTFRF | > 16 | – | – | – | – | – | – | – | – | – | – | –
2 | MKQTVYIASPESQQIHVWNLNHEGALTLTQVVDVPGQVQPMVVSPDKRYLYVGVRPEFRVLAYRIAPDDGALTFAAESALPGSPTHISTDHQGQFVFVGSYNAGNVSVTRLEDGLPVGVVDVVEGLDGCHSANISPDNRTLWVPALKQDRICLFTVSDDGHLVAQDPAEVTTVEGAGPRHMVFHPNEQYAYCVNELNSSVDVWELKDPHGNIECVQTLDMMPENFSDTRWAADIHITPDGRHLYACDRTASLITVFSVSEDGSVLSKEGFQPTETQPRGFNVDHSGKYLIAAGQKSHHISVYEIVGEQGLLHEKGRYAVGQGPMWVVVNAH | 11.1 ± 2 | 4.59 ± 0.99 | 4.79 ± 0.47 | 6.52 ± 0.2 | 4.87 ± 0.15 | 3.17 ± 0.23 | 4.95 ± 0.27 | 9.37 ± 2.2 | 6.2 ± 2.5 | – | – | –
3 | MTGKKRSASSSRWLQEHFSDKYVQQAQKKGLRSRAWFKLDEIQQSDKLFKPGMTVVDLGAAPGGWSQYVVTQIGGKGRIIACDLLPMDPIVGVDFLQGDFRDELVMKALLERVGDSKVQVVMSDMAPNMSGTPAVDIPRAMYLVELALEMCRDVLAPGGSFVVKVFQGEGFDEYLREIRSLFTKVKVRKPDSSRARSREVYIVATGRKP [P0C0R7] | 11.4 ± 1.5 | 3.946 ± 0.035 | 4.42 ± 0.32 | 4.55 ± 0.18 | 4.52 ± 0.28 | 2.81 ± 0.034 | 4.45 ± 0.14 | 7.904 ± 0.057 | 5.13 ± 0.14 | 5.17 ± 0.46 | 5.87 ± 0.41 | 8.89 ± 0.018
4 | MSALNKKSFLTYLKEGGIYVVLLVLLAIIIFQDPTFLSLLNLSNILTQSSVRIIIALGVAGLIVTQGTDLSAGRQVGLAAVVAATLLQSMDNANKVFPEMATMPIALVILIVCAIGAVIGLINGLIIAYLNVTPFITTLGTMIIVYGINSLYYDFVGASPISGFDSGFSTFAQGFVALGSFRLSYITFYALIAVAFVWVLWNKTRFGKNIFAIGGNPEAAKVSGVNVGLNLLMIYALSGVFYAFGGMLEAGRIGSATNNLGFMYELDAIAACVVGGVSFSGGVGTVIGVVTGVIIFTVINYGLTYIGVNPYWQYIIKGAIIIFAVALDSLKYARKK | 12 ± 0.2 | 6.19 | 6.83 ± 0.54 | 6.18 | 6.18 ± 0.67 | 3.05 ± 0.18 | – | – | 5.49 ± 1.3 | 3.21 | – | –
5 | MNKNRGFTPLAVVLMLSGSLALTGCDDKQAQQGGQQMPAVGVVTVKTEPLQITTELPGRTSAYRIAEVRPQVSGIILKRNFKEGSDIEAGVSLYQIDPATYQATYDSAKGDLAKAQAAANIAQLTVNRYQKLLGTQYISKQEYDQALADAQQANAAVTAAKAAVETARINLAYTKVTSPISGRIGKSNVTEGALVQNGQATALATVQQLDPIYVDVTQSSNDFLRLKQELANGTLKQENGKAKVSLITSDGIKFPQDGTLEFSDVTVDQTTGSITLRAIFPNPDHTLLPGMFVRARLEEGLNPNAILVPQQGVTRTPRGDATVLVVGADDKVETRPIVASQAIGDKWLVTEGLKAGDRVVISGLQKVRPGVQVKAQEVTADNNQQAASGAQPEQSKS [P0AE06] | 12.1 ± 0.26 | – | 6.3 ± 0.28 | 6.62 ± 0.54 | 5.93 ± 0.21 | 2.921 ± 0.024 | 6.134 ± 0.05 | 13.33 ± 0.11 | 5.814 ± 0.041 | 5.95 ± 0.32 | 5.84 ± 0.46 | 12.5 ± 0.88
6 | MSRPTIIINDLDAERIDILLEQPAYAGLPIADALNAELDRAQMCSPEEMPHDVVTMNSRVKFRNLSDGEVRVRTLVYPAKMTDSNTQLSVMAPVGAALLGLRVGDSIHWELPGGVATHLEVLELEYQPEAAGDYLL [P0AFW4] | 2.08 ± 0.0038 | – | – | 1.49 | – | 1.02 ± 0.099 | 1.43 ± 0.68 | – | 1.36 | 4.22 ± 0.14 | 1.55 ± 0.086 | 2.53
7 | MRLFIAEKPSLARAIADVLPKPHRKGDGFIECGNGQVVTWCIGHLLEQAQPDAYDSRYARWNLADLPIVPEKWQLQPRPSVTKQLNVIKRFLHEASEIVHAGDPDREGQLLVDEVLDYLQLAPEKRQQVQRCLINDLNPQAVERAIDRLRSNSEFVPLCVSALARARADWLYGINMTRAYTILGRNAGYQGVLSVGRVQTPVLGLVVRRDEEIENFVAKDFFEVKAHIVTPADERFTAIWQPSEACEPYQDEEGRLLHRPLAEHVVNRISGQPAIVTSYNDKRESESAPLPFSLSALQIEAAKRFGLSAQNVLDICQKLYETHKLITYPRSDCRYLPEEHFAGRHAVMNAISVHAPDLLPQPVVDPDIRNRCWDDKKVDAHHAIIPTARSSAINLTENEAKVYNLIARQYLMQFCPDAVFRKCVIELDIAKGKFVAKARFLAEAGWRTLLGSKERDEENDGTPLPVVAKGDELLCEKGEVVERQTQPPRHFTDATLLSAMTGIARFVQDKDLKKILRATDGLGTEATRAGIIELLFKRGFLTKKGRYIHSTDAGKALFHSLPEMATRPDMTAHWESVLTQISEKQCRYQDFMQPLVGTLYQLIDQAKRTPVRQFRGIVAPGSGGSADKKKAAPRKRSAKKSPPADEVGSGAIA | 3.27 ± 0.57 | 2.48 ± 0.14 | 1.843 ± 0.0066 | 4.39 ± 0.75 | 1.97 ± 0.14 | 1.65 ± 0.098 | 2.32 ± 0.17 | 3.255 ± 0.0094 | 2.23 ± 0.41 | 5.31 ± 0.35 | 3.12 ± 0.038 | 4.46 ± 1.1
